This is an account of results in PMC4758095.

A short description of data set [1]: not described (stated in discussion only). To be noted: glycan lost; control: wild type MARCO.
Data set [2] is described as follows: live immunostaining; surface biotinylation pull-down. As to conditions: glycan lost; control: wild type SR-AI.
Data set [3] is described as follows: FAM-oAβ uptake, confocal fluorescence quantification, COS-7. To be noted: glycan lost; control: wild type SR-AI.

B1: MARCO: N83Q-136Q (protein)
parent chain: MRNKKILKEDELLSETQQAAFHQIAMEPFEINVPKPKRRNGVNFSLAVVVIYLILLTAGAGLLVVQVLNLQARLRVLEMYFLNDTLAAEDSPSFSLLQSAHPGEHLAQGASRLQVLQAQLTWVRVSHEHLLQRVDNFTQNPGMFRIKGEQGAPGLQGHKGAMGMPGAPGPPGPPAEKGAKGAMGRDGATGPSGPQGPPGVKGEAGLQGPQGAPGKQGATGTPGPQGEKGSKGDGGLIGPKGETGTKGEKGDLGLPGSKGDRGMKGDAGVMGPPGAQGSKGDFGRPGPPGLAGFPGAKGDQGQPGLQGVPGPPGAVGHPGAKGEPGSAGSPGRAGLPGSPGSPGATGLKGSKGDTGLQGQQGRKGESGVPGPAGVKGEQGSPGLAGPKGAPGQAGQKGDQGVKGSSGEQGVKGEKGERGENSVSVRIVGSSNRGRAEVYYSGTWGTICDDEWQNSDAIVFCRMLGYSKGRALYKVGAGTGQIWLDNVQCRGTESTLWSCTKNSWGHHDCSHEEDAGVECSV
On to B1, for which, in data set [1], the localisation_or_trafficking result is recorded as “abolishes”.

B2: SR-AI (scavenger receptor A type I): N143Q-N184Q (protein)
parent chain: MEQWDHFHNQQEDTDSCSESVKFDARSMTALLPPNPKNSPSLQEKLKSFKAALIALYLLVFAVLIPLIGIVAAQLLKWETKNCSVSSTNANDITQSLTGKGNDSEEEMRFQEVFMEHMSNMEKRIQHILDMEANLMDTEHFQNFSMTTDQRFNDILLQLSTLFSSVQGHGNAIDEISKSLISLNTTLLDLQLNIENLNGKIQENTFKQQEEISKLEERVYNVSAEIMAMKEEQVHLEQEIKGEVKVLNNITNDLRLKDWEHSQTLRNITLIQGPPGPPGEKGDRGPTGESGPRGFPGPIGPPGLKGDRGAIGFPGSRGLPGYAGRPGNSGPKGQKGEKGSGNTLTPFTKVRLVGGSGPHEGRVEILHSGQWGTICDDRWEVRVGQVVCRSLGYPGVQAVHKAAHFGQGTGPIWLNEVFCFGRESSIEECKIRQWGTRACSHSEDAGVTCTL
Take B2: the localisation_or_trafficking result in data set [2] is on record as “no change”. The “other: ligand internalisation” value in data set [3] was “decreases”.

B3: SR-AI (scavenger receptor A type I): N184Q (protein)
parent chain: MEQWDHFHNQQEDTDSCSESVKFDARSMTALLPPNPKNSPSLQEKLKSFKAALIALYLLVFAVLIPLIGIVAAQLLKWETKNCSVSSTNANDITQSLTGKGNDSEEEMRFQEVFMEHMSNMEKRIQHILDMEANLMDTEHFQNFSMTTDQRFNDILLQLSTLFSSVQGHGNAIDEISKSLISLNTTLLDLQLNIENLNGKIQENTFKQQEEISKLEERVYNVSAEIMAMKEEQVHLEQEIKGEVKVLNNITNDLRLKDWEHSQTLRNITLIQGPPGPPGEKGDRGPTGESGPRGFPGPIGPPGLKGDRGAIGFPGSRGLPGYAGRPGNSGPKGQKGEKGSGNTLTPFTKVRLVGGSGPHEGRVEILHSGQWGTICDDRWEVRVGQVVCRSLGYPGVQAVHKAAHFGQGTGPIWLNEVFCFGRESSIEECKIRQWGTRACSHSEDAGVTCTL
Regarding B3, the localisation_or_trafficking entry in data set [2] is on record as “no change”. Also, in data set [3], the “other: ligand internalisation” value is “no change”.

B4: SR-AI (scavenger receptor A type I): N102Q-N184Q (protein)
parent chain: MEQWDHFHNQQEDTDSCSESVKFDARSMTALLPPNPKNSPSLQEKLKSFKAALIALYLLVFAVLIPLIGIVAAQLLKWETKNCSVSSTNANDITQSLTGKGNDSEEEMRFQEVFMEHMSNMEKRIQHILDMEANLMDTEHFQNFSMTTDQRFNDILLQLSTLFSSVQGHGNAIDEISKSLISLNTTLLDLQLNIENLNGKIQENTFKQQEEISKLEERVYNVSAEIMAMKEEQVHLEQEIKGEVKVLNNITNDLRLKDWEHSQTLRNITLIQGPPGPPGEKGDRGPTGESGPRGFPGPIGPPGLKGDRGAIGFPGSRGLPGYAGRPGNSGPKGQKGEKGSGNTLTPFTKVRLVGGSGPHEGRVEILHSGQWGTICDDRWEVRVGQVVCRSLGYPGVQAVHKAAHFGQGTGPIWLNEVFCFGRESSIEECKIRQWGTRACSHSEDAGVTCTL
With B4, the “other: ligand internalisation” value in data set [3] is listed as “no change”.

B5: SR-AI (scavenger receptor A type I): N249Q (protein)
parent chain: MEQWDHFHNQQEDTDSCSESVKFDARSMTALLPPNPKNSPSLQEKLKSFKAALIALYLLVFAVLIPLIGIVAAQLLKWETKNCSVSSTNANDITQSLTGKGNDSEEEMRFQEVFMEHMSNMEKRIQHILDMEANLMDTEHFQNFSMTTDQRFNDILLQLSTLFSSVQGHGNAIDEISKSLISLNTTLLDLQLNIENLNGKIQENTFKQQEEISKLEERVYNVSAEIMAMKEEQVHLEQEIKGEVKVLNNITNDLRLKDWEHSQTLRNITLIQGPPGPPGEKGDRGPTGESGPRGFPGPIGPPGLKGDRGAIGFPGSRGLPGYAGRPGNSGPKGQKGEKGSGNTLTPFTKVRLVGGSGPHEGRVEILHSGQWGTICDDRWEVRVGQVVCRSLGYPGVQAVHKAAHFGQGTGPIWLNEVFCFGRESSIEECKIRQWGTRACSHSEDAGVTCTL
As to B5, in data set [2], the localisation_or_trafficking entry is recorded as “no change”. Further, the “other: ligand internalisation” value in data set [3] was “no change”.

B6: SR-AI (scavenger receptor A type I): N267Q (protein)
parent chain: MEQWDHFHNQQEDTDSCSESVKFDARSMTALLPPNPKNSPSLQEKLKSFKAALIALYLLVFAVLIPLIGIVAAQLLKWETKNCSVSSTNANDITQSLTGKGNDSEEEMRFQEVFMEHMSNMEKRIQHILDMEANLMDTEHFQNFSMTTDQRFNDILLQLSTLFSSVQGHGNAIDEISKSLISLNTTLLDLQLNIENLNGKIQENTFKQQEEISKLEERVYNVSAEIMAMKEEQVHLEQEIKGEVKVLNNITNDLRLKDWEHSQTLRNITLIQGPPGPPGEKGDRGPTGESGPRGFPGPIGPPGLKGDRGAIGFPGSRGLPGYAGRPGNSGPKGQKGEKGSGNTLTPFTKVRLVGGSGPHEGRVEILHSGQWGTICDDRWEVRVGQVVCRSLGYPGVQAVHKAAHFGQGTGPIWLNEVFCFGRESSIEECKIRQWGTRACSHSEDAGVTCTL
In the case of B6, in data set [2], the localisation_or_trafficking result is given as “no change”. For the same protein, in data set [3], the “other: ligand internalisation” value was “no change”.

B7: SR-AI (scavenger receptor A type I): N102Q-N143Q (protein)
parent chain: MEQWDHFHNQQEDTDSCSESVKFDARSMTALLPPNPKNSPSLQEKLKSFKAALIALYLLVFAVLIPLIGIVAAQLLKWETKNCSVSSTNANDITQSLTGKGNDSEEEMRFQEVFMEHMSNMEKRIQHILDMEANLMDTEHFQNFSMTTDQRFNDILLQLSTLFSSVQGHGNAIDEISKSLISLNTTLLDLQLNIENLNGKIQENTFKQQEEISKLEERVYNVSAEIMAMKEEQVHLEQEIKGEVKVLNNITNDLRLKDWEHSQTLRNITLIQGPPGPPGEKGDRGPTGESGPRGFPGPIGPPGLKGDRGAIGFPGSRGLPGYAGRPGNSGPKGQKGEKGSGNTLTPFTKVRLVGGSGPHEGRVEILHSGQWGTICDDRWEVRVGQVVCRSLGYPGVQAVHKAAHFGQGTGPIWLNEVFCFGRESSIEECKIRQWGTRACSHSEDAGVTCTL
B7: the localisation_or_trafficking entry in data set [2] is recorded as “no change”. In addition, the “other: ligand internalisation” value in data set [3] is recorded as “decreases”.

B8: SR-AI (scavenger receptor A type I): N221Q (protein)
parent chain: MEQWDHFHNQQEDTDSCSESVKFDARSMTALLPPNPKNSPSLQEKLKSFKAALIALYLLVFAVLIPLIGIVAAQLLKWETKNCSVSSTNANDITQSLTGKGNDSEEEMRFQEVFMEHMSNMEKRIQHILDMEANLMDTEHFQNFSMTTDQRFNDILLQLSTLFSSVQGHGNAIDEISKSLISLNTTLLDLQLNIENLNGKIQENTFKQQEEISKLEERVYNVSAEIMAMKEEQVHLEQEIKGEVKVLNNITNDLRLKDWEHSQTLRNITLIQGPPGPPGEKGDRGPTGESGPRGFPGPIGPPGLKGDRGAIGFPGSRGLPGYAGRPGNSGPKGQKGEKGSGNTLTPFTKVRLVGGSGPHEGRVEILHSGQWGTICDDRWEVRVGQVVCRSLGYPGVQAVHKAAHFGQGTGPIWLNEVFCFGRESSIEECKIRQWGTRACSHSEDAGVTCTL
Take B8: the localisation_or_trafficking entry in data set [2] was “no change”. In data set [3], the “other: ligand internalisation” value was “no change”.

B9: SR-AI (scavenger receptor A type I): N102Q (protein)
parent chain: MEQWDHFHNQQEDTDSCSESVKFDARSMTALLPPNPKNSPSLQEKLKSFKAALIALYLLVFAVLIPLIGIVAAQLLKWETKNCSVSSTNANDITQSLTGKGNDSEEEMRFQEVFMEHMSNMEKRIQHILDMEANLMDTEHFQNFSMTTDQRFNDILLQLSTLFSSVQGHGNAIDEISKSLISLNTTLLDLQLNIENLNGKIQENTFKQQEEISKLEERVYNVSAEIMAMKEEQVHLEQEIKGEVKVLNNITNDLRLKDWEHSQTLRNITLIQGPPGPPGEKGDRGPTGESGPRGFPGPIGPPGLKGDRGAIGFPGSRGLPGYAGRPGNSGPKGQKGEKGSGNTLTPFTKVRLVGGSGPHEGRVEILHSGQWGTICDDRWEVRVGQVVCRSLGYPGVQAVHKAAHFGQGTGPIWLNEVFCFGRESSIEECKIRQWGTRACSHSEDAGVTCTL
On to B9, for which the localisation_or_trafficking result in data set [2] is “no change”. In data set [3], the “other: ligand internalisation” value is “no change”.

B10: SR-AI (scavenger receptor A type I): N82Q (protein)
parent chain: MEQWDHFHNQQEDTDSCSESVKFDARSMTALLPPNPKNSPSLQEKLKSFKAALIALYLLVFAVLIPLIGIVAAQLLKWETKNCSVSSTNANDITQSLTGKGNDSEEEMRFQEVFMEHMSNMEKRIQHILDMEANLMDTEHFQNFSMTTDQRFNDILLQLSTLFSSVQGHGNAIDEISKSLISLNTTLLDLQLNIENLNGKIQENTFKQQEEISKLEERVYNVSAEIMAMKEEQVHLEQEIKGEVKVLNNITNDLRLKDWEHSQTLRNITLIQGPPGPPGEKGDRGPTGESGPRGFPGPIGPPGLKGDRGAIGFPGSRGLPGYAGRPGNSGPKGQKGEKGSGNTLTPFTKVRLVGGSGPHEGRVEILHSGQWGTICDDRWEVRVGQVVCRSLGYPGVQAVHKAAHFGQGTGPIWLNEVFCFGRESSIEECKIRQWGTRACSHSEDAGVTCTL
Consider B10, for which the localisation_or_trafficking entry in data set [2] is on record as “no change”. The “other: ligand internalisation” value in data set [3] is recorded as “no change”.

B11: SR-AI (scavenger receptor A type I): N143Q (protein)
parent chain: MEQWDHFHNQQEDTDSCSESVKFDARSMTALLPPNPKNSPSLQEKLKSFKAALIALYLLVFAVLIPLIGIVAAQLLKWETKNCSVSSTNANDITQSLTGKGNDSEEEMRFQEVFMEHMSNMEKRIQHILDMEANLMDTEHFQNFSMTTDQRFNDILLQLSTLFSSVQGHGNAIDEISKSLISLNTTLLDLQLNIENLNGKIQENTFKQQEEISKLEERVYNVSAEIMAMKEEQVHLEQEIKGEVKVLNNITNDLRLKDWEHSQTLRNITLIQGPPGPPGEKGDRGPTGESGPRGFPGPIGPPGLKGDRGAIGFPGSRGLPGYAGRPGNSGPKGQKGEKGSGNTLTPFTKVRLVGGSGPHEGRVEILHSGQWGTICDDRWEVRVGQVVCRSLGYPGVQAVHKAAHFGQGTGPIWLNEVFCFGRESSIEECKIRQWGTRACSHSEDAGVTCTL
For the protein B11, the localisation_or_trafficking entry in data set [2] is “no change”. Besides, the “other: ligand internalisation” value in data set [3] is “no change”.
